Consider 1 substance from paper PMC7439511.

The experiment addresses GST-PHD^RACK7 (human). In words: MST.

Consider “H3.3G34R peptide (amino acids 22 to 44) (from UniProt P84243 23-45)”, for which the Kd was determined as 6 µM.

As usually defined, the Kd is the equilibrium constant for the complex coming apart. A low value points to tighter binding.
